Data from patent publication US20200149021, “SYSTEM AND METHOD FOR GENOME EDITING” (INSTITUTE OF ZOOLOGY, CHINESE ACADEMY OF SCIENCES, published 2020).

Key:
BsCpf1 = molecular target: T1, BsCpf1 (Butyrivibrio sp. NC30); experiment: cell_activity; PAM TTTC; T7EI; details: tags: HA (2A-eGFP vector)
T1 chain: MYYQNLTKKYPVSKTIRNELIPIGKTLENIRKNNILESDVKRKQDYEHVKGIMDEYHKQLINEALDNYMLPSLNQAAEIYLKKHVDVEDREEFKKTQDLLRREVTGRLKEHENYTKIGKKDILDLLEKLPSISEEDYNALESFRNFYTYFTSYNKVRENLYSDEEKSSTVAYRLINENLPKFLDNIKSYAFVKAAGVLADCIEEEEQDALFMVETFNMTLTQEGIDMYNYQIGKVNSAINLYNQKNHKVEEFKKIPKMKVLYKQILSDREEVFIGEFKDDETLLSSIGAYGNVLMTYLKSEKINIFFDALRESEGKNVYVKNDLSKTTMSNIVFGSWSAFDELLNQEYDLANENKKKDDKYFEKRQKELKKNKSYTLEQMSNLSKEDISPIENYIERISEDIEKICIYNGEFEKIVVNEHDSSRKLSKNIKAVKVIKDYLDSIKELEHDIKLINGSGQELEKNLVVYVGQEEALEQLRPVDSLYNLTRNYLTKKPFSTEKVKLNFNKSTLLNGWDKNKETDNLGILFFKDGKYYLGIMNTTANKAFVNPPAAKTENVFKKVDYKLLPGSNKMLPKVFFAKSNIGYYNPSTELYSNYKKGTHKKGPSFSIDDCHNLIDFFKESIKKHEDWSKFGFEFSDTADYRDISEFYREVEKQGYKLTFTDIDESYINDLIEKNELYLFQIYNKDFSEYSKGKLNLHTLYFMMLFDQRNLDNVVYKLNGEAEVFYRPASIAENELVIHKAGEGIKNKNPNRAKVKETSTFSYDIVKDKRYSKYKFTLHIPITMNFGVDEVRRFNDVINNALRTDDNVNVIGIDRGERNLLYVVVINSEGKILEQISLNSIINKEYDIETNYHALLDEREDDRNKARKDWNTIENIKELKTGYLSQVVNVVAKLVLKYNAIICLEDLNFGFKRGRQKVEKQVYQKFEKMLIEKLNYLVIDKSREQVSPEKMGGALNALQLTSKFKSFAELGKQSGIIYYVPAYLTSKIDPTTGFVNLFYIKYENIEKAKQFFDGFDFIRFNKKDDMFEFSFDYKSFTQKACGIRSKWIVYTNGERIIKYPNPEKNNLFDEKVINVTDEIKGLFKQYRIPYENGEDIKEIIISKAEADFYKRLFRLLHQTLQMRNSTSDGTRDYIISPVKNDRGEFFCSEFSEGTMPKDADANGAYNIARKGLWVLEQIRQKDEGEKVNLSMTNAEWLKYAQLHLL
Experimental: (§1) GFP-positive cells were sorted by FACS, lysed with Buffer L+ 1/100V Protease K (Biotool) at 55° C. for 30 min, inactivated at 95° C. for 5 min, and directly used for PCR detection. Appropriate primers were designed near the Cpf1 targeting site, and the amplified product was purified using DNA Clean & Concentrator™-5 kit (ZYMO Research). 200 ng of purified PCR product was added into 1 uL of NEBuffer2 (NEB) and diluted to 10 uL with ddH₂O. Then, heterodimers were formed by re-annealing according to the previously reported method (Li, W., et al., Simultaneous generation and germline transmission of multiple gene mutations in rat using CRISPR-Cas systems. Nat Biotechnol, 2013. 31(8): p. 684-6). The reannealed product was added with 0.3 uL of T7EI endnucelease and 1/10 V NEBuffer2 (NEB), and digested at 37° C. for 1 h 30 min. Genotype analysis was performed by 3% TAE-Gel electrophoresis. Indels were calculated according to the method reported in the previous article (Cong, L., et al., Multiplex genome engineering using CRISPR/Cas systems. Science, 2013. 339(6121): p. 819-23).
(§2) The cells were transfected with Cpf1, crRNA31, and crRNA2 plasmids, and it was confirmed by PCR and T7EI analysis that crRNA31 can increase the editing efficiency of five Cpf1s of ArCpf1, BsCpf1, HkCpf1, PrCpf1, and PxCpf1 at the site MeCP2-4 by two folds (FIG. 13B).

ArCpf1 = molecular target: T2, ArCpf1 (Agathobacter rectalis); experiment: cell_activity; PAM TTTC; T7EI; details: tags: NLS, HA (2A-eGFP vector)
T2 chain: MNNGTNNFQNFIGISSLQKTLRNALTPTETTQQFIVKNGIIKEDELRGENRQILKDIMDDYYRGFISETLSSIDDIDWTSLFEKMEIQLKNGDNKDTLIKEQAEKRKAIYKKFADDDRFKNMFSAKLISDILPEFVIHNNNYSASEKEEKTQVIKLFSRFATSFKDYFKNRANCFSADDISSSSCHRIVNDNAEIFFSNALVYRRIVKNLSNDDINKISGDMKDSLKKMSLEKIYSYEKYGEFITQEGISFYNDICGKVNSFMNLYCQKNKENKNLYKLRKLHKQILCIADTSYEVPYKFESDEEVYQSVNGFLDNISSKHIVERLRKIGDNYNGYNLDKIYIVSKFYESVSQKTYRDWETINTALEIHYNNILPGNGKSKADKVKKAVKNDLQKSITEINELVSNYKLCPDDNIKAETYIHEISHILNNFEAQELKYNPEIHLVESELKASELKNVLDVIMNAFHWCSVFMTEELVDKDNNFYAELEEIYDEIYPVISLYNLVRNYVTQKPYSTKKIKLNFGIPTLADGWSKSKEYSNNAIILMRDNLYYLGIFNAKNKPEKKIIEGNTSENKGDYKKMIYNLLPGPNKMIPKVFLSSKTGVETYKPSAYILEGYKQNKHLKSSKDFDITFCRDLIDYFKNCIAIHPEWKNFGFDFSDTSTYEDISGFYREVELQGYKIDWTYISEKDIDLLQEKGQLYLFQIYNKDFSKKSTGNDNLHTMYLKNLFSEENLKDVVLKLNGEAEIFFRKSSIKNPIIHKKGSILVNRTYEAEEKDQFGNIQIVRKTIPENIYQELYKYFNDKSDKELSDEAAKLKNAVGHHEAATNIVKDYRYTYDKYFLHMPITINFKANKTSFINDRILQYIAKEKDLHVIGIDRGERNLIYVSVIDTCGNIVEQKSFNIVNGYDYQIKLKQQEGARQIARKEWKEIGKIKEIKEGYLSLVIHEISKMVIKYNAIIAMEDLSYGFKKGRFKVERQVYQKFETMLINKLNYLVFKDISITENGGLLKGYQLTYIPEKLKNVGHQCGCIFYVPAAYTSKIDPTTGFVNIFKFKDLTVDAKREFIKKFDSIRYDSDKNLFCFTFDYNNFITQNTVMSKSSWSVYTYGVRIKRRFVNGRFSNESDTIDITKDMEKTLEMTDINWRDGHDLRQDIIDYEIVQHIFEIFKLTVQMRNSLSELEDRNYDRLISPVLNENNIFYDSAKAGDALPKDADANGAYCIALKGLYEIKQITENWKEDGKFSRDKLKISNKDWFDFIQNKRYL
Experimental: as §1, §2

B1: crRNA31 MeCP2 site 4 ; Mouse MeCP2 site 4 (ssRNA ; dsDNA)
RNA: AUUUCUACUAUGGUAGAUGUGUCCAACCUUCAGGCAAGGUG
DNA 1: TTTCGTGTCCAACCTTCAGGCAAGGTG
DNA 2: CACCTTGCCTGAAGGTTGGACACGAAA
B1 showed an editing efficiency (BsCpf1) of roughly 2 fold vs crRNA2 and an editing efficiency (ArCpf1) of roughly 2 fold vs crRNA2.
